What is called stoichiometry N is the number of molecules, sites or subunits per partner or assembly.

From publication PMC10619424 come the findings set out here.

This experiment concerns the target haloalkane dehalogenase DmmarA from Mycobacterium marinum M (Mycobacterium marinum M). The experiment is described as follows: SAXS; SEC-purified DmmarA at 2, 4.5 and 8.7 mg/ml in 50 mM sodium acetate, 10 mM Tris pH 8.5; scattering curves fitted to the crystallographic monomer and dimer (CRYSOL), ab initio model (DAMMIN).

With “haloalkane dehalogenase DmmarA from Mycobacterium marinum M (enzyme)”, the stoichiometry N came to 2.
